We go through six molecules from patent US7067277 (H LUNDBECK A S, dated 2006).

Numbering of substitutions follows the chain as printed.

B1: C. elegans Gαq/s9 (other)
chain: MACCLSEEAREQKRINQEIEKQLQRDKRNARRELKLLLLGTGESGKSTFIKQMRIIHGQGYSEEDKRAHIRLVYQNVFMAIQSMIRAMDTLDIKFGNESEELQEKAAVVREVDFESVTSFEEPYVSYIKELWEDSGIQECYDRRREYQLTDSAKYYLSDLRRLAVPDYLPTEQDILRVRVPTTGIIEYPFDLEQIIFRMVDVGGQRSERRKWIHCFENVTSIMFLVALSEYDQVLVECDNENRMEESKALFRTIITYPWFTNSSVILFLNKKDLLEEKILYSHLADYFPEYDGPPRDPIAAREFILKMFVDLNPDADKIIYSHFTCATDTENIRFVFAAVKDTILQMHLRQYELL
B2: C. elegans Gαq/s21 (other)
chain: B1 chain with F335R, A338N, A339D, V340C, K341R, T343I, L345Q, Q346R
B3: Human Gαq/s5 (other)
chain: MTLESIMACCLSEEAKEARRINDEIERQLRRDKRDARRELKLLLLGTGESGKSTFIKQMRIIHGSGYSDEDKRGFTKLVYQNIFTAMQAMIRAMDTLKIPYKYEHNKAHAQLVREVDVEKVSAFENPYVDAIKSLWNDPGIQECYDRRREYQLSDSTKYYLNDLDRVADPSYLPTQQDVLRVRVPTTGIIEYPFDLQSVIFRMVDVGGQRSERRKWIHCFENVTSIMFLVALSEYDQVLVESDNENRMEESKALFRTIITYPWFQNSSVILFLNKKDLLEEKIMYSHLVDYFPEYDGPQRDAQAAREFILKMFVDLNPDSDKIIYSHFTCATDTENIRFVFAAVKDTILQLNLKQYELL
B4: Human Gαq/s9 (other)
chain: B3 chain with L351M, N352H, K354R
B5: D. melanogaster Gαq/z5 (other)
chain: MECCLSEEAKEQKRINQEIEKQLRRDKRDARRELKLLLLGTGESGKSTFIKQMRIIHGSGYSDEDKRGYIKLVFQNIFMAMQSMIKAMDMLKISYGQGEHSELADLVMSIDYETVTTFEDPYLNAIKTLWDDAGIQECYDRRREYQLTDSAKYYLKDLDRVAQPAYLPTEQDILRVRVPTTGIIEYPFDLEEIRFRMVDVGGQRSERRKWIHCFENVTSIIFLVALSEYDQILFESDNENRMEESKALFRTIITYPWFQNSSVILFLNKKDLLEEKIMYSHLVDYFPEYDGPQRDAITAREFILRMFVDLNPDSEKIIYSHFTCATDTENIRFVFAAVKDTILQSNLKYIGLC
B6: Human Gαq/z5 (identical to Accession number L76256) (other)
chain: B3 chain with S171A, Q355Y, Y356I, E357G, L359C

human 5HT7 receptor, sequence (P34969 whole entry): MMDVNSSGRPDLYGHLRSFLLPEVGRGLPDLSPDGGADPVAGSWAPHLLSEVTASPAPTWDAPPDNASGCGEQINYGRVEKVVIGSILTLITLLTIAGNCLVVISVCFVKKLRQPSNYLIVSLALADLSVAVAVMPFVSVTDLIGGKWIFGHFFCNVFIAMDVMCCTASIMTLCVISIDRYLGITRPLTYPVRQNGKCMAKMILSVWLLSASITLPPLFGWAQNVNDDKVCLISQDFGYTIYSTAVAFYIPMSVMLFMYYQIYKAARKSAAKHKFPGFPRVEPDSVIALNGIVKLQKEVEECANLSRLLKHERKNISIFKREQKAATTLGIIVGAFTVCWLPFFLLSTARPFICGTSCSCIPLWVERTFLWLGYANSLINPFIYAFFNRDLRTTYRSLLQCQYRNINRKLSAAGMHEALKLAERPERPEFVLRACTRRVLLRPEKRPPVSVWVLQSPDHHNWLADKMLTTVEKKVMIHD
human dopamine D5 receptor, sequence (P21918 whole entry): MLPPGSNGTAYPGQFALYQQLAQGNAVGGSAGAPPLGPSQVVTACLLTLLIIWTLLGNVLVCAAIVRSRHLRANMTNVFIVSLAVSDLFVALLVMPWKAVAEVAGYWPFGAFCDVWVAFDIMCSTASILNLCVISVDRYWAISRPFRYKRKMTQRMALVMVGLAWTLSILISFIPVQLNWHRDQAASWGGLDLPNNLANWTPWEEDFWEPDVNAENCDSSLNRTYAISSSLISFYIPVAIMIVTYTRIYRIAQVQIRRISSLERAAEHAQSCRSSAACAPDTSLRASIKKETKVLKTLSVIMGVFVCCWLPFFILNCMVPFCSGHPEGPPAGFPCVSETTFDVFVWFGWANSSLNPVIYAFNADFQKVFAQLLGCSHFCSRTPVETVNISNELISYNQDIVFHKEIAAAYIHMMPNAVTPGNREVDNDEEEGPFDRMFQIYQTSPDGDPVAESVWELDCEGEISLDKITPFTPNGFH

For the first assay, the target named is T1, human dopamine D1 receptor (human, UniProt P21728 1-446). Description: cell-based or functional assay.
T1 sequence (P21728 whole entry): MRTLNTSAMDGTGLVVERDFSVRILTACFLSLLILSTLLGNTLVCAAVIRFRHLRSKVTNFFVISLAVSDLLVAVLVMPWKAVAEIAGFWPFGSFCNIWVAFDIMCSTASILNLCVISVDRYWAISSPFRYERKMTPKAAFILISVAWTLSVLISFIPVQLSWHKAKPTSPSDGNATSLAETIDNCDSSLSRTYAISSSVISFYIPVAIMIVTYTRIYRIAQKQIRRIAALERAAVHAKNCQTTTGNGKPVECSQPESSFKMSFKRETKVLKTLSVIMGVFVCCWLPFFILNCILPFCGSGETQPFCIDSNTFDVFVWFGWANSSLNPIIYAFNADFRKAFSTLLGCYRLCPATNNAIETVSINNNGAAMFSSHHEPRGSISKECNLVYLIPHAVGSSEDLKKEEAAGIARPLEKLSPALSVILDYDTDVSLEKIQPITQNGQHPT
Regarding B1, the “max Ca2+ signal, COS-7, FLIPR; agonist dopamine; fold over hGαq/s9” value stood at 1.5 fold.

A further assay addresses T1, human dopamine D1 receptor. Description: cell-based or functional assay. The source holds these as a separate data set.
Take B1: the “max Ca2+ signal, COS-7, FLIPR; agonist DA” value (from here on “max Ca2+ signal … agonist DA”) was 8690 fluorescence units.

With B2, the “max Ca2+ signal … agonist DA” value was 9430 fluorescence units.

As to B3, the “max Ca2+ signal … agonist DA” value was 0 fluorescence units.

As for B4, the “max Ca2+ signal … agonist DA” value stood at 5690 fluorescence units.

Another assay has as its target human dopamine D5 receptor (human, UniProt P21918 1-477). Nature of the assay: cell-based or functional assay.
On to B1, for which the “max Ca2+ signal … agonist DA” value is 1870 fluorescence units.

Turning to B2, the “max Ca2+ signal … agonist DA” value was 3380 fluorescence units.

Turning to B3, the “max Ca2+ signal … agonist DA” value was 0 fluorescence units.

Consider B4, for which the “max Ca2+ signal … agonist DA” value is 745 fluorescence units.

Another assay deals with human β2 adrenergic receptor (human, UniProt P07550 1-413). Description: cell-based or functional assay.
For the molecule B1, the “max Ca2+ signal, COS-7, FLIPR; agonist NE” value (“max Ca2+ signal … agonist NE” for short) turned out to be 3110 fluorescence units.

B2: the “max Ca2+ signal … agonist NE” value was 3510 fluorescence units.

With B3, the “max Ca2+ signal … agonist NE” value was determined as 43 fluorescence units.

In the case of B4, the “max Ca2+ signal … agonist NE” value was determined as 1440 fluorescence units.

In the next assay the target is human 5HT6 receptor (human, UniProt P50406 1-440). Description: cell-based or functional assay.
human 5HT6 receptor, sequence (P50406 whole entry): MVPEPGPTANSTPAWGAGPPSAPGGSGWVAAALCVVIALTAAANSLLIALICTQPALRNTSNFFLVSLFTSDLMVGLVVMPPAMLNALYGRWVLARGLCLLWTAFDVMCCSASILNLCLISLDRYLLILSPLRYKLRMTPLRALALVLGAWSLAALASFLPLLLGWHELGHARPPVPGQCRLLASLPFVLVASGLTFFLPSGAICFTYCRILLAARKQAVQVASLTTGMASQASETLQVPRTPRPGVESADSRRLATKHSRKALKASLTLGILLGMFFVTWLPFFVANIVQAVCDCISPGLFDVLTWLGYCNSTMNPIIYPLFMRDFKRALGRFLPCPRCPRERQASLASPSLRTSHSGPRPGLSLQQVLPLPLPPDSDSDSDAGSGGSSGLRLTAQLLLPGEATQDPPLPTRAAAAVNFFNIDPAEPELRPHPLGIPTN
With B1, the “max Ca2+ signal, COS-7, FLIPR; agonist 5HT” value (“max Ca2+ signal … agonist 5HT” for short) stood at 1640 fluorescence units.

Turning to B2, the “max Ca2+ signal … agonist 5HT” value was found to be 1010 fluorescence units.

Regarding B3, the “max Ca2+ signal … agonist 5HT” value is 98 fluorescence units.

As to B4, the “max Ca2+ signal … agonist 5HT” value was 999 fluorescence units.

The next assay deals with human GLP-1 receptor (human, UniProt P43220 24-463). Nature of the assay: cell-based or functional assay.
Regarding B1, the “max Ca2+ signal, COS-7, FLIPR; agonist GLP-1” value is 2460 fluorescence units.

Regarding B2, the “max Ca2+ signal, COS-7, FLIPR; agonist GLP-1” value was determined as 3120 fluorescence units.

With B3, the “max Ca2+ signal, COS-7, FLIPR; agonist GLP-1” value is 189 fluorescence units.

Take B4: the “max Ca2+ signal, COS-7, FLIPR; agonist GLP-1” value came to 4200 fluorescence units.

The target of the next assay is human 5HT4 receptor (human, UniProt Q13639 1-388). Nature of the assay: cell-based or functional assay.
human 5HT4 receptor, sequence (Q13639 whole entry): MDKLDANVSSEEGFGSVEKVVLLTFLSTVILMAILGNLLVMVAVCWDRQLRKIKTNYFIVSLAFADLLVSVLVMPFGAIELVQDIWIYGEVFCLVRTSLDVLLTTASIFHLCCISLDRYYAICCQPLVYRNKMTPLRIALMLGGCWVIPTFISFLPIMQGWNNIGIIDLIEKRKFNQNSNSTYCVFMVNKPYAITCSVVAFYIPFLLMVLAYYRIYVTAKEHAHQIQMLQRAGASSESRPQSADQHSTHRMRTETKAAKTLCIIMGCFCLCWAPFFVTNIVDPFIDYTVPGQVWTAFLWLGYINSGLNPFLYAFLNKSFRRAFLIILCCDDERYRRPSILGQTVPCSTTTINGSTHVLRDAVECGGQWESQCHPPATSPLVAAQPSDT
On to B1, for which the “max Ca2+ signal … agonist 5HT” value amounted to 1700 fluorescence units.

Regarding B2, the “max Ca2+ signal … agonist 5HT” value was 1730 fluorescence units.

For the molecule B3, the “max Ca2+ signal … agonist 5HT” value stood at 1710 fluorescence units.

Turning to B4, the “max Ca2+ signal … agonist 5HT” value was 2310 fluorescence units.

A further assay concerns the target human 5HT7 receptor (human, UniProt P34969 1-479). Description: cell-based or functional assay.
B1: the “max Ca2+ signal … agonist 5HT” value is 387 fluorescence units.

For B2, the “max Ca2+ signal … agonist 5HT” value was found to be 206 fluorescence units.

As to B3, the “max Ca2+ signal … agonist 5HT” value is 0 fluorescence units.

For the molecule B4, the “max Ca2+ signal … agonist 5HT” value was 0 fluorescence units.

A further assay deals with T1, human dopamine D1 receptor. Description: cell-based or functional assay. The source holds these as a separate data set.
For the molecule B5, the “max Ca2+ signal, COS-7, FLIPR; 100 µM dopamine” value amounted to 2150 fluorescence units.

In the case of B6, the “max Ca2+ signal, COS-7, FLIPR; 100 µM dopamine” value turned out to be 0 fluorescence units.
